Results as given in patent publication US20050124549A1 (ADMINISTRATORS OF THE TULANE EDUCATIONAL FUND, published 2005).
Where no end group is shown, it is not given here. [ ]: non-standard residue; d: D form.

Key:
[1] = biological target: T1, human somatostatin receptor subtype 2 (human, UniProt P30874 1-369); test: cell-based or functional assay
T1 construct: whole, on cells; also called SSTR2; SSTR-2

[2] = biological target: T1, human somatostatin receptor subtype 2; test: radioligand displacement, CHO-K1 membranes expressing human SSTR2; competitor [125I]MK-678
Protocol: (§1) Specificity and selectivity of the analogues were determined by Radioligand Binding Assay on CHO-K1 cells stably transfected with each of the SSTR subtypes, as follows.
(§2) Membranes for in vitro receptor binding assays were obtained by homogenizing the CHO-K1 cells expressing the SSTR's subtypes in ice-cold 50 mM Tris-HCl and centrifuging twice at 39000 g (10 min), with an intermediate resuspension in fresh buffer. The final pellets were resuspended in 10 mM Tris-HCl for assay. […] The final assay volume was 0.3 ml. […] The incubations were terminated by rapid filtration through GF/C filters (pre-soaked in 0.3% polyethylenimine) using a Brandel filtration manifold. Each tube and filter were then washed three times with 5 ml aliquots of ice-cold buffer.

[3] = biological target: T2, human somatostatin receptor subtype 1 (human, UniProt P30872 1-391); test: radioligand displacement, CHO-K1 membranes expressing human SSTR1; competitor [125I-Tyr11]SS-14
T2 construct: whole, on cells; Membrane preparations of transfected CHO-K1 cells; also called SSTR1; SSTR-1
T2 sequence (P30872 whole entry): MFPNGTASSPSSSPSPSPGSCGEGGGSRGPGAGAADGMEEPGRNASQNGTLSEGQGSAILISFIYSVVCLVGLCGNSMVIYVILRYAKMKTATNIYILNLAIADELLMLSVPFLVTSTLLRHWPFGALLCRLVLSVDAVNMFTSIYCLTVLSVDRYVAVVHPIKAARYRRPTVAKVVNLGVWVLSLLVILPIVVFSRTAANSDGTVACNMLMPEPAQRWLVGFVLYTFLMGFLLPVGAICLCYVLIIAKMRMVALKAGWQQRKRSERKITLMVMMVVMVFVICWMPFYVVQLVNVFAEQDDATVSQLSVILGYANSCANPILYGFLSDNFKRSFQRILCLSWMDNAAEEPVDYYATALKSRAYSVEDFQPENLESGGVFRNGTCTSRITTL
Protocol: as §1, §2

[4] = biological target: T3, human somatostatin receptor subtype 3 (human, UniProt P32745 1-418); test: radioligand displacement, CHO-K1 membranes expressing human SSTR3; competitor [125I-Tyr11]SS-14
T3 construct: whole, on cells; Membrane preparations of transfected CHO-K1 cells; also called SSTR3; SSTR-3
T3 sequence (P32745 whole entry): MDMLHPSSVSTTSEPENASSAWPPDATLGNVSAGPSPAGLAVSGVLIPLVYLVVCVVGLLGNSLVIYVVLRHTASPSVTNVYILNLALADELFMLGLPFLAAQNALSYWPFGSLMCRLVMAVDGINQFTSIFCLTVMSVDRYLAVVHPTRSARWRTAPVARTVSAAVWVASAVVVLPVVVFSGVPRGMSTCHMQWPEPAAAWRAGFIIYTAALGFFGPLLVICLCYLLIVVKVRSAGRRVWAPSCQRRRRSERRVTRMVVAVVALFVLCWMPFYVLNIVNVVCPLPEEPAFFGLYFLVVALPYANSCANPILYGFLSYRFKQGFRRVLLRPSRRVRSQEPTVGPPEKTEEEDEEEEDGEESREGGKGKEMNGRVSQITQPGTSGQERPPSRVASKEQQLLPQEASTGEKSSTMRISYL
Protocol: as §1, §2

[5] = biological target: T4, human somatostatin receptor subtype 5 (human, UniProt P35346 1-364); test: radioligand displacement, CHO-K1 membranes expressing human SSTR5; competitor [125I-Tyr11]SS-14
T4 construct: whole, on cells; also called SSTR5; SSTR-5
T4 sequence (P35346 whole entry): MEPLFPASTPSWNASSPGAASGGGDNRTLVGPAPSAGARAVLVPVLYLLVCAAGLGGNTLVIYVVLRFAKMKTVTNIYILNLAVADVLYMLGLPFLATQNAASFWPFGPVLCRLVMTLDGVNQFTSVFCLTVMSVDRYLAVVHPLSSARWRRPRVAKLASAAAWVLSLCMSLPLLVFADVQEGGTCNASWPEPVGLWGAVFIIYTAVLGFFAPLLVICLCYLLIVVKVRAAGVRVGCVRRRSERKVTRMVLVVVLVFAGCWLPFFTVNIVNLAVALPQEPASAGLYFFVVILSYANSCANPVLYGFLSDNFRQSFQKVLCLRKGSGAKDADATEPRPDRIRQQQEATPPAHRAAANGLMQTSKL
Protocol: as §1, §2

[6] = biological target: human somatostatin receptor subtype 4 (human) (UniProt P31391); test: radioligand displacement, CHO-K1 membranes expressing human SSTR4; competitor [125I-Tyr11]SS-14
Sequence of human somatostatin receptor subtype 4 (human) (P31391 whole entry): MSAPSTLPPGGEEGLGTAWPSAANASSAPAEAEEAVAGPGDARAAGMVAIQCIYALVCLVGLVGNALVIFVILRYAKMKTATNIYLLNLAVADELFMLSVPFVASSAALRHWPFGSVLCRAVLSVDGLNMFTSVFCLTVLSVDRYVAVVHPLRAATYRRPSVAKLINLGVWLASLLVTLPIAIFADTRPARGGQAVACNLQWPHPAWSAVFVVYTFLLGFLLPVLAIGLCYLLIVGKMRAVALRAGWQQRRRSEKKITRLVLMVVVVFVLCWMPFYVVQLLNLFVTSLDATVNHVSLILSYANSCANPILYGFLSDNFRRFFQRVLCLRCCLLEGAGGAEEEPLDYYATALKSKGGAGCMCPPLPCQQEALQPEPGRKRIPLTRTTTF

T1 sequence (P30874 whole entry): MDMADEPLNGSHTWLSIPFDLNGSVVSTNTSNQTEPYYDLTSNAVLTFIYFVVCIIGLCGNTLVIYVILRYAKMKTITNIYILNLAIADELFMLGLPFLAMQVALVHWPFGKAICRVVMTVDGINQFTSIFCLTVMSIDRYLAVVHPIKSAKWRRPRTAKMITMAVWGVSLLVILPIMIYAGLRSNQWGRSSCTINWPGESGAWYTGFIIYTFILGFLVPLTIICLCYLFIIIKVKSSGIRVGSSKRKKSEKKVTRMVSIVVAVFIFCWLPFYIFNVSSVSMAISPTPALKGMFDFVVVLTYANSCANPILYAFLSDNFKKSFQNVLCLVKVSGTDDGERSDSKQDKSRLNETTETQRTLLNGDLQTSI

Compound 3: 4-(2-Hydroxyethyl)-1-piperazinylacetyl-D-Phe-cyclo(Cys-Tyr-D-Trp-Lys-Abu-Cys)-Thr-NH2 (peptide)
change of [^3H]thy incorporation in TT cells at 10^-9 M [1]: -17% | IC50 [2]: 0.35 nM | IC50 [3]: 5210 nM

Compound 6: Cpa-cyclo(D-Cys-4-Pal-D-Trp-Lys-Thr-Cys)-Nal-NH2 (peptide)
IC50 [2]: 6.4 nM | IC50 [3]: 2760 nM | IC50 [4]: 44 nM | IC50 [5]: 86.5 nM

Compound 2: cyclo[Tic-Tyr-D-Trp-Lys-Abu-Phe] (peptide)
suppression of [^3H]thy incorporation in TT cells, 10^-9 to 10^-7 M [1]: 23 to 58% | IC50 [6]: 1000 nM | IC50 [2]: 0.34 nM | IC50 [3]: 1000 nM | IC50 [4]: 412 nM | IC50 [5]: 214 nM

Compound 4: 4-(2-Hydroxyethyl)-1-piperazine-2-ethanesulfonyl-D-Phe-cyclo(Cys-Tyr-D-Trp-Lys-Abu-Cys)-Thr-NH2 (peptide)
change of [^3H]thy incorporation in TT cells at 10^-9 M [1]: -13%

B1: Compound 1: D-Nal-cyclo[Cys-Tyr-D-Trp-Lys-Val-Cys]-Thr-NH2 (peptide)
peptide: XCYXKVCT
modifications: not fully specified; D-Nal at position 1; D-Trp at position 4; cyclo (disulfide) Cys2-Cys7; C-terminal amide
notes: also called SSTR2 preferential agonist
IC50 [2]: 0.75 nM | IC50 [3]: 2130 nM | IC50 [4]: 98 nM

B2: Compound 5: D-Phe-Phe-Trp-D-Trp-Lys-Thr-Phe-Thr-NH2 (peptide)
peptide: [dF]FW[dW]KTFT-NH2
notes: also called SSTR5 preferential agonist; SSTR5 selective agonist
IC50 [2]: 166 nM | IC50 [3]: 1150 nM | IC50 [4]: 1000 nM | IC50 [5]: 2.4 nM
